PMC11252482 (Acta Pharmaceutica Sinica. B, 2024)
Residue numbers refer to the chain shown, from its start. Numbers in names are those of the source.

Target: His-PKM2, purified recombinant (UniProt P14618-1 1-531)
Assay: pull-down

Sequence of His-PKM2, purified recombinant (P14618 whole entry): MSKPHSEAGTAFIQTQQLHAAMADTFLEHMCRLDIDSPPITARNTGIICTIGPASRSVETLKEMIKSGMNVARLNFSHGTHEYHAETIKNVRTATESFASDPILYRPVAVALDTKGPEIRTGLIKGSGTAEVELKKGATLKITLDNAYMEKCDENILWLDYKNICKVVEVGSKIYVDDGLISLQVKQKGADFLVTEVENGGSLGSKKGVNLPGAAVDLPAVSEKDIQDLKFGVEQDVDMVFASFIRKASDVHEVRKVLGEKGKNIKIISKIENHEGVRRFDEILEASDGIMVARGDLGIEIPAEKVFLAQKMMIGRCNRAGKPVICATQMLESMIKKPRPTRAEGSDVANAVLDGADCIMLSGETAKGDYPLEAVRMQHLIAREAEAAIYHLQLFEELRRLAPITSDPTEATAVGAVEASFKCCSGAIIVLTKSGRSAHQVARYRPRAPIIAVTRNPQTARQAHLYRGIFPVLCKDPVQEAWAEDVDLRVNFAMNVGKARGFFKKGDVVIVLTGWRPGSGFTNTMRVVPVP

B1: GST-KHK-A (enzyme)
chain: MEEKQILCVGLVVLDVISLVDKYPKEDSEIRCLSQRWQRGGNASNSCTVLSLLGAPCAFMGSMAPGHVADFVLDDLRRYSVDLRYTVFQTTGSVPIATVIINEASGSRTILYYDRSLPDVSATDFEKVDLTQFKWIHIEGRNASEQVKMLQRIDAHNTRQPPEQKIRVSVEVEKPREELFQLFGYGDVVFVSKDVAKHLGFQSAEEALRGLYGRVRKGAVLVCAWAEEGADALGPDGKLLHSDAFPPPRVVDTLGAGDTFNASVIFSLSQGRSVQEALRFGCQVAGKKCGLQGFDGIV
  binding result: binds

B2: GST-KHK-A G257R (enzyme)
chain: B1 chain with G257R
  binding result: binds
